# From patent US20260242419A1, “A CYCLIC PEPTIDE FOR TRAPPING INTERLEUKIN-1 BETA” (Merck Sharp & Dohme LLC, priority 2023, published 2026)
# Non-standard residues stand in square brackets, D forms with d. No end group written: not given here. Phe(4-(5-CO2H-2-pyrimidyl)) = N[C@@H](Cc1ccc(-c2ncc(C(=O)O)cn2)cc1)C(=O)O; Phe(4-(4-Ac-piperazinyl)) = CC(=O)N1CCN(c2ccc(C[C@H](N)C(=O)O)cc2)CC1; dPro(4R-(4-pyridylmethyl)) = O=C(O)[C@H]1C[C@@H](Cc2ccncc2)CN1; Trp(βS-Me,4-F) = C[C@@H](c1c[nH]c2cccc(F)c12)[C@H](N)C(=O)O; Bip(4'-COOH) = N[C@@H](Cc1ccc(-c2ccc(C(=O)O)cc2)cc1)C(=O)O; Ala(1-bicyclo(1.1.1)pentyl) = N[C@@H](CC12CC(C1)C2)C(=O)O; dPro(4R-Bzl(4-F)) = O=C(O)[C@H]1C[C@@H](Cc2ccc(F)cc2)CN1; Ala(pyrimidin-5-yl) = N[C@@H](Cc1cncnc1)C(=O)O; Phe(4-COOH) = N[C@@H](Cc1ccc(C(=O)O)cc1)C(=O)O; Pro(cis-4-F) = O=C(O)[C@@H]1C[C@H](F)CN1; Ala(4-THP) = N[C@@H](CC1CCOCC1)C(=O)O; cisHyp = O=C(O)[C@@H]1C[C@H](O)CN1; 4Pal = N[C@@H](Cc1ccncc1)C(=O)O; aThr = C[C@H](O)[C@H](N)C(=O)O; αMeD = C[C@](N)(CC(=O)O)C(=O)O; d(αMeS) = C[C@@](N)(CO)C(=O)O; Dab = NCC[C@H](N)C(=O)O; Aib = CC(C)(N)C(=O)O; Sar = CNCC(=O)O
# Target: Recombinant human IL-1β (BioLegend 579404) (human, UniProt P01584 117-269)
# Experiment: cell-based or functional assay
row,Binder,MRC5 IC50
1,"[Phe(4-(5-CO2H-2-pyrimidyl))][4Pal][Phe(4-COOH)]G[cisHyp][Trp(βS-Me,4-F)][Aib]SW[Aib][Ala(pyrimidin-5-yl)]Q[Dab]G[dPro(4R-(4-pyridylmethyl))] (lactam (positions not given here); also: macrolactam ring, closure sites not given here) [SEQ ID NO: 197]",0.036 nM
2,"[Bip(4'-COOH)][Ala(1-bicyclo(1.1.1)pentyl)][Phe(4-COOH)]G[cisHyp][Trp(βS-Me,4-F)][Aib]SW[αMeD][Ala(4-THP)]Q[Dab]G[dPro(4R-(4-pyridylmethyl))] (lactam (positions not given here); also: macrolactam ring, closure sites not given here) [SEQ ID NO: 191]",0.021 nM
3,"[Phe(4-(4-Ac-piperazinyl))][4Pal][Phe(4-COOH)]G[cisHyp][Trp(βS-Me,4-F)][Aib]SW[Aib][Ala(pyrimidin-5-yl)]Q[Dab]G[dPro(4R-Bzl(4-F))] (lactam (positions not given here); also: macrolactam ring, closure sites not given here) [SEQ ID NO: 196]",0.038 nM
4,"[Phe(4-(5-CO2H-2-pyrimidyl))][Ala(1-bicyclo(1.1.1)pentyl)][Phe(4-COOH)]G[Pro(cis-4-F)][SbMcW4F][Aib]SW[Aib][Ala(pyrimidin-5-yl)]Q[Dab]G[dPro(4R-(4-pyridylmethyl))] (lactam (positions not given here); also: macrolactam ring, closure sites not given here) [SEQ ID NO: 198]",0.024 nM
5,"[Bip(4'-COOH)][Ala(1-bicyclo(1.1.1)pentyl)][Phe(4-COOH)]G[Pro(cis-4-F)][Trp(βS-Me,4-F)][Aib]SW[αMeD][Ala(4-THP)]Q[Dab]G[dPro(4R-(4-pyridylmethyl))] (lactam (positions not given here); also: macrolactam ring, closure sites not given here) [SEQ ID NO: 193]",0.011 nM
6,"[Bip(4'-COOH)][Ala(1-bicyclo(1.1.1)pentyl)][Phe(4-COOH)]G[cisHyp][Trp(βS-Me,4-F)][Aib]SW[d(αMeS)][Ala(4-THP)]Q[Dab]G[dPro(4R-(4-pyridylmethyl))] (lactam (positions not given here); also: macrolactam ring, closure sites not given here) [SEQ ID NO: 192]",0.021 nM
7,"[Bip(4'-COOH)][4Pal][Phe(4-COOH)]G[cisHyp][Trp(βS-Me,4-F)][Aib]SW[d(αMeS)][Ala(pyrimidin-5-yl)]Q[Dab]G[dPro(4R-(4-pyridylmethyl))] (lactam (positions not given here); also: macrolactam ring, closure sites not given here) [SEQ ID NO: 195]",0.013 nM
8,"[Bip(4'-COOH)][4Pal][Phe(4-COOH)]G[cisHyp][Trp(βS-Me,4-F)][Aib]SW[Aib][Ala(pyrimidin-5-yl)]Q[Dab]G[dPro(4R-(4-pyridylmethyl))] (lactam (positions not given here); also: macrolactam ring, closure sites not given here) [SEQ ID NO: 194]",0.014 nM
9,"cyclo([Bip(4'-COOH)][4Pal][Phe(4-COOH)]G[cisHyp][Trp(βS-Me,4-F)][Aib]SW[αMeD][Ala(4-THP)]QSG[dPro(4R-(4-pyridylmethyl))]) (ring closure inferred; not fully specified (bridges); printed as Bip4CO2H-4Pal-Phe4COOH-G-Proc4OH-SbMeW4F-Aib-S-W-aMeD-AlaTHP4-Q-S-G-dProc4CH24Pal, cyclic (macrolactam)) [SEQ ID NO: 199]",0.032 nM
10,"cyclo([Bip(4'-COOH)][4Pal][Phe(4-COOH)]G[Pro(cis-4-F)][Trp(βS-Me,4-F)][Aib]SW[αMeD][Ala(4-THP)]Q[Dab]G[dPro(4R-(4-pyridylmethyl))]) (ring closure inferred; not fully specified (bridges); printed as Bip4CO2H-4Pal-Phe4COOH-G-Proc4F-SbMeW4F-Aib-S-W-aMeD-AlaTHP4-Q-Dab-G-dProc4CH24Pal, cyclic (macrolactam)) [SEQ ID NO: 200]",0.014 nM
11,"cyclo([Bip(4'-COOH)][4Pal][Phe(4-COOH)]G[cisHyp][Trp(βS-Me,4-F)][Aib]SW[αMeD][Ala(4-THP)]Q[Dab]G[dPro(4R-(4-pyridylmethyl))]) (ring closure inferred; not fully specified (bridges); printed as Bip4CO2H-4Pal-Phe4COOH-G-Proc4OH-SbMeW4F-Aib-S-W-aMeD-AlaTHP4-Q-Dab-G-dProc4CH24Pal, cyclic (macrolactam)) [SEQ ID NO: 201]",0.019 nM

# Second part, the binder after the results:
row,MRC5 IC50,Binder
1,0.016 nM,"cyclo([Bip(4'-COOH)][Ala(1-bicyclo(1.1.1)pentyl)][Phe(4-COOH)]G[Pro(cis-4-F)][Trp(βS-Me,4-F)][Aib]SW[αMeD]VQ[Dab]G[dPro(4R-(4-pyridylmethyl))]) (ring closure inferred; not fully specified (bridges); printed as Bip4CO2H-AlaPent-Phe4COOH-G-Proc4F-SbMeW4F-Aib-S-W-aMeD-V-Q-Dab-G-dProc4CH24Pal, cyclic (macrolactam)) [SEQ ID NO: 203]"
2,0.028 nM,"cyclo([Bip(4'-COOH)][4Pal][Phe(4-COOH)]G[Pro(cis-4-F)][Trp(βS-Me,4-F)][Aib]SW[Aib][Ala(pyrimidin-5-yl)]Q[Dab][Sar][dPro(4R-(4-pyridylmethyl))]) (ring closure inferred; not fully specified (bridges); printed as Bip4CO2H-4Pal-Phe4COOH-G-Proc4F-SbMeW4F-Aib-S-W-Aib-PyrimAla-Q-Dab-Sar-dProc4CH24Pal, cyclic (macrolactam)) [SEQ ID NO: 205]"
3,0.022 nM,"cyclo([Bip(4'-COOH)][4Pal][Phe(4-COOH)]G[Pro(cis-4-F)][Trp(βS-Me,4-F)][Aib]SW[d(αMeS)][Ala(pyrimidin-5-yl)]Q[Dab][Sar][dPro(4R-(4-pyridylmethyl))]) (ring closure inferred; not fully specified (bridges); printed as Bip4CO2H-4Pal-Phe4COOH-G-Proc4F-SbMeW4F-Aib-S-W-daMeS-PyrimAla-Q-Dab-Sar-dProc4CH24Pal, cyclic (macrolactam)) [SEQ ID NO: 206]"
4,0.017 nM,"cyclo([Bip(4'-COOH)][Ala(1-bicyclo(1.1.1)pentyl)][Phe(4-COOH)]G[Pro(cis-4-F)][Trp(βS-Me,4-F)][Aib]SW[d(αMeS)][Ala(4-THP)]Q[Dab]G[dPro(4R-(4-pyridylmethyl))]) (ring closure inferred; not fully specified (bridges); printed as Bip4CO2H-AlaPent-Phe4COOH-G-Proc4F-SbMeW4F-Aib-S-W-daMeS-AlaTHP4-Q-Dab-G-dProc4CH24Pal, cyclic (macrolactam)) [SEQ ID NO: 204]"
5,0.013 nM,"cyclo([Bip(4'-COOH)][Ala(1-bicyclo(1.1.1)pentyl)][Phe(4-COOH)]G[Pro(cis-4-F)][Trp(βS-Me,4-F)][Aib]SW[αMeD][aThr]Q[Dab]G[dPro(4R-(4-pyridylmethyl))]) (ring closure inferred; not fully specified (bridges); printed as Bip4CO2H-AlaPent-Phe4COOH-G-Proc4F-SbMeW4F-Aib-S-W-aMeD-alT-Q-Dab-G-dProc4CH24Pal, cyclic (macrolactam)) [SEQ ID NO: 202]"
6,0.044 nM,"cyclo([Bip(4'-COOH)][4Pal][Phe(4-COOH)]G[cisHyp][Trp(βS-Me,4-F)][Aib]SW[d(αMeS)][Ala(4-THP)]Q[Dab][Sar][dPro(4R-(4-pyridylmethyl))]) (ring closure inferred; not fully specified (bridges); printed as Bip4CO2H-4Pal-Phe4COOH-G-Proc4OH-SbMeW4F-Aib-S-W-daMeS-AlaTHP4-Q-Dab-Sar-dProc4CH24Pal, cyclic (macrolactam)) [SEQ ID NO: 207]"
7,0.034 nM,"cyclo([Bip(4'-COOH)][4Pal][Phe(4-COOH)]G[cisHyp][Trp(βS-Me,4-F)][Aib]SW[αMeD][Ala(pyrimidin-5-yl)]Q[Dab][Sar][dPro(4R-(4-pyridylmethyl))]) (ring closure inferred; not fully specified (bridges); printed as Bip4CO2H-4Pal-Phe4COOH-G-Proc4OH-SbMeW4F-Aib-S-W-aMeD-PyrimAla-Q-Dab-Sar-dProc4CH24Pal, cyclic (macrolactam)) [SEQ ID NO: 209]"
8,0.015 nM,"cyclo([Bip(4'-COOH)][4Pal][Phe(4-COOH)]G[Pro(cis-4-F)][Trp(βS-Me,4-F)][Aib]SW[αMeD][Ala(4-THP)]Q[Dab][Sar][dPro(4R-(4-pyridylmethyl))]) (ring closure inferred; not fully specified (bridges); printed as Bip4CO2H-4Pal-Phe4COOH-G-Proc4F-SbMeW4F-Aib-S-W-aMeD-AlaTHP4-Q-Dab-Sar-dProc4CH24Pal, cyclic (macrolactam)) [SEQ ID NO: 208]"
